The target of one assay is T1, soluble I^125-ztnf4 (human, UniProt Q9Y275 134-285, limits assumed, 125I-labelled).
T1 construct: also called ztnf4 sol; neutrokine alpha
The assay can be described thus: Scatchard analysis of soluble 125I-ztnf4 on stable BHK transfectants expressing BCMA.

In the next assay the target is soluble ztnf4 (human) (UniProt Q9Y275). Nature of the assay: cell-based or functional assay.
Sequence of soluble ztnf4 (human) (Q9Y275 134-285 limits assumed): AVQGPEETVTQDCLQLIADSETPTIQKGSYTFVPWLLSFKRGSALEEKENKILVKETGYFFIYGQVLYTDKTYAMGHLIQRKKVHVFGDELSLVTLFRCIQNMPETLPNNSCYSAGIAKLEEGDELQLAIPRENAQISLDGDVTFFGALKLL

T1 sequence (Q9Y275 134-285 limits assumed): as above

B1: BCMA (SEQ ID NO:8) (receptor)
chain: MLQMAGQCSQNEYFDSLLHACIPCQLRCSSNTPPLTCQRYCNASVTNSVKGTNAILWTCLGLSLIISLAVFVLMFLLRKISSEPLKDEFKNTGSGLLGMANIDLEKSRTGDEIILPRGLEYTVEECTCEDCIKSKPKVDSDHCFPLPAMEEGATILVTTKTNDYCKSLPAALSATEIEKSISAR
notes: also called BCMA-BHK
Molecule B1 returned a dissociation constant (Kd) in the assay with soluble I^125-ztnf4 of 1.25 nM.

B2: TACI-Ig soluble receptor (TACI-Fc4 fusion protein) (Fc fusion, part only; not given: Fc4 part, part only)
chain, part: MSGLGRSRRGGRSRVDQEERFPQGLWTGVAMRSCPEEQYWDPLLGTCMSCKTICNHQSQRTCAAFCRSLSCRKEQGKFYDHLLRDCISCASICGQHPKQCAYFCENKLRSPVNLPPELRRQRSGEVENNSDNSGRYQGLEHRGSEASPALPGLKLSADQVALVYS
B2 came in with an inhibition of soluble ztnf4-stimulated human B cell proliferation (3H thymidine, with IL-4) (fold molar excess) in the assay with soluble ztnf4 (human) of 10.

The record behind these values is patent publication EP1354598A2 (ZymoGenetics, Inc., dated 2003).
